Holding throughout (assay): ITC
For data set [1], the target named is T1, CstF-50;CstF-77ΔN;CstF-64RH (Homo sapiens;Homo sapiens;Homo sapiens, UniProt Q05048;Q12996;P33240 1-431;241-717;1-199, |del1-240|).
T1 sequence 1: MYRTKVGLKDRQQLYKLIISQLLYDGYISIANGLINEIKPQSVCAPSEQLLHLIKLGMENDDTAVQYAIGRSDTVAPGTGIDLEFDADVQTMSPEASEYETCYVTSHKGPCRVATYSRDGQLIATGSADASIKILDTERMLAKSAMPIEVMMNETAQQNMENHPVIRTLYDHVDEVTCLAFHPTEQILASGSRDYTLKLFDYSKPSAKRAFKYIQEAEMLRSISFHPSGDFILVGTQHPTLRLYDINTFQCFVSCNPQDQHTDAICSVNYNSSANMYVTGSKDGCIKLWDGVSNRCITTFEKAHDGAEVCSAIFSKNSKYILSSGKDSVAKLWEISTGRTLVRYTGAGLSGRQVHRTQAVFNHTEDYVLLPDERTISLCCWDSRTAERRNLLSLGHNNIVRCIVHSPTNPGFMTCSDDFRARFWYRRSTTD
T1 sequence 2: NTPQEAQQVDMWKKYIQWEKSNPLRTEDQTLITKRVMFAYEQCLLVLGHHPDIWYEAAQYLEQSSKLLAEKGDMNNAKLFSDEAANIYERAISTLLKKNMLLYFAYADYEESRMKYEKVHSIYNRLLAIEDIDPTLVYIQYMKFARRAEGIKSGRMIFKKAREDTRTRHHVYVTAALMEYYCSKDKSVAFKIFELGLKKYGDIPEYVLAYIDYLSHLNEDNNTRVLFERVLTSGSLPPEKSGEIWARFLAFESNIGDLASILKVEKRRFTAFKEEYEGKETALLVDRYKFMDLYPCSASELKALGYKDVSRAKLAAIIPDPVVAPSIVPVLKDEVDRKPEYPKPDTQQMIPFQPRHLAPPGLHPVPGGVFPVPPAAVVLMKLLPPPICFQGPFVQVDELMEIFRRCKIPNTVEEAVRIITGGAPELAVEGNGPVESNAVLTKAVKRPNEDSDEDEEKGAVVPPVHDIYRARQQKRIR
T1 sequence 3: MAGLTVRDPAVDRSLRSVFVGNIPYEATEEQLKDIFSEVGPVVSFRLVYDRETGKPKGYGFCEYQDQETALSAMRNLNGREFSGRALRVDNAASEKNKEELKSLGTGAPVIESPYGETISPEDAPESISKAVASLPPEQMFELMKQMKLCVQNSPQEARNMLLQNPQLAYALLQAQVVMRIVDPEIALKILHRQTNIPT

The target of data set [2] is T2, CstF-77ΔN;CstF-64RH (Homo sapiens;Homo sapiens, UniProt Q12996;P33240 241-717;1-199, del1-240|).
T2 sequence 1: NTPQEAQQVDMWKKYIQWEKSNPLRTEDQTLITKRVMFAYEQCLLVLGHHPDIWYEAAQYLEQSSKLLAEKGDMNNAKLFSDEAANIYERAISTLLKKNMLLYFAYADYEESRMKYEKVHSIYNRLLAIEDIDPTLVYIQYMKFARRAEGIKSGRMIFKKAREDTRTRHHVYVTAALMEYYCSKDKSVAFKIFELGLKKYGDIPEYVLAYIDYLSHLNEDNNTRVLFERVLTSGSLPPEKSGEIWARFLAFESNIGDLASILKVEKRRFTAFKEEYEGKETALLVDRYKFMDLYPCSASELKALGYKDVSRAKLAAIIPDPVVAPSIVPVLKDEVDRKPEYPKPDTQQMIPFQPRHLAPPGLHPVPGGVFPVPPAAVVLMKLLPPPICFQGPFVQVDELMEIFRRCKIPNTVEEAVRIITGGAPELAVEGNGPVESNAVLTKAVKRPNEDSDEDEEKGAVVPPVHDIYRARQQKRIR
T2 sequence 2: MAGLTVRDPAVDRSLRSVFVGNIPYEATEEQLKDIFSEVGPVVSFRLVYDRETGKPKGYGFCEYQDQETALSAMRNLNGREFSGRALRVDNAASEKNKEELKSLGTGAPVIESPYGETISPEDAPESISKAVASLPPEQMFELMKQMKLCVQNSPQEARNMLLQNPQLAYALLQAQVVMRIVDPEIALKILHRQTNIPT

In data set [3] the target is T1, CstF-50;CstF-77ΔN;CstF-64RH. This is another data set of the same source.
The target of data set [4] is T2, CstF-77ΔN;CstF-64RH. This is another data set of the same source.
The target of another data set is T3, CstF-64 RRM (Homo sapiens, UniProt P33240 16-94).
T3 sequence: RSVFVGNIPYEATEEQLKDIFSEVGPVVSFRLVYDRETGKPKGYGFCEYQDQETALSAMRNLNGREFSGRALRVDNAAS

In data set [5] the target is T1, CstF-50;CstF-77ΔN;CstF-64RH. This is another data set of the same source.
In data set [6] the target is T2, CstF-77ΔN;CstF-64RH. The source holds these as a separate data set.
For data set [7], the target named is T1, CstF-50;CstF-77ΔN;CstF-64RH. This is another data set of the same source.

Consider five molecules from PMC5778602.

Where two headings read alike, the source gives them in different places.

B1: AC14 (ssRNA)
RNA: ACACACACACACAC
Take B1: in data set [1], the binding result is recorded as “no binding”.

B2: UUUUU-containing RNA (ssRNA)
RNA: GUGUGACCCUUUUU
B2: in the data set with CstF-77ΔN;CstF-64RH [2], the Kd was ~3700 nM.

B3: GU14 (ssRNA)
RNA: GUGUGUGUGUGUGU
As for B3, the equilibrium dissociation constant (Kd) in data set [3] was ~120 nM; with CstF-77ΔN;CstF-64RH [4], ~160 nM; with CstF-64 RRM it was ~2500 nM.

B4: GU10 (ssRNA)
RNA: GUGUGUGUGU
As to B4, in data set [5], the Kd is ~500 nM. Also, in the data set with CstF-77ΔN;CstF-64RH [6], the binding result is recorded as “binds”.

B5: GU8 (ssRNA)
RNA: GUGUGUGU
Consider B5, for which the binding signal in data set [7] is ~2.5 fold tighter than GU6.
